Assay results published in paper PMC10487539, “Glutaryl-CoA Dehydrogenase Misfolding in Glutaric Acidemia Type 1” (International Journal of Molecular Sciences, 2023).

How the values were obtained:
[1] = target: the molecule itself; assay: SEC; self-association; MBPTrap eluate on HiLoad 16/600 Superdex 200, 20 mM HEPES pH 7.0, 200 mM NaCl, 4 °C; higher oligomers or aggregates 45-55 mL, tetramers 65-75 mL, dimers 75-85 mL, monomers 85-95 mL
[2] = target: the molecule itself; assay: SEC; self-association; as a1 but in 10 mM potassium phosphate buffer with 10% glycerol (used for A433V only), 4 °C
[3] = target: the molecule itself; assay: native gel or EMSA; self-association; BN-PAGE and Western blot of proteins purified by affinity chromatography; bands of monomer, dimer and tetramer as percent of total

B1: recombinant human glutaryl-CoA dehydrogenase, wild type, MBP fusion (enzyme)
chain: RPEFDWQDPLVLEEQLTTDEILIRDTFRTYCQERLMPRILLANRNEVFHREIISEMGELGVLGPTIKGYGCAGVSSVAYGLLARELERVDSGYRSAMSVQSSLVMHPIYAYGSEEQRQKYLPQLAKGELLGCFGLTEPNSGSDPSSMETRAHYNSSNKSYTLNGTKTWITNSPMADLFVVWARCEDGCIRGFLLEKGMRGLSAPRIQGKFSLRASATGMIIMDGVEVPEENVLPGASSLGGPFGCLNNARYGIAWGVLGASEFCLHTARQYALDRMQFGVPLARNQLIQKKLADMLTEITLGLHACLQLGRLKDQDKAAPEMVSLLKRNNCGKALDIARQARDMLGGNGISDEYHVIRHAMNLEAVNTYEGTHDIHALILGRAITGIQAFTASK
notes: glutaryl-CoA dehydrogenase (GCDH), human cDNA in pMAL-c2X; the precursor has 438 amino acids and the first 44 are cut on mitochondrial import; No cleavage of MBP is described; The printed masses (tetramer 173.2 kDa) count without MBP; also called GCDH; WT; not shown: MBP, N-terminal, kept
- stoichiometry N [1]: 4

B2: recombinant human GCDH variant E414K, MBP fusion (enzyme)
chain: RPEFDWQDPLVLEEQLTTDEILIRDTFRTYCQERLMPRILLANRNEVFHREIISEMGELGVLGPTIKGYGCAGVSSVAYGLLARELERVDSGYRSAMSVQSSLVMHPIYAYGSEEQRQKYLPQLAKGELLGCFGLTEPNSGSDPSSMETRAHYNSSNKSYTLNGTKTWITNSPMADLFVVWARCEDGCIRGFLLEKGMRGLSAPRIQGKFSLRASATGMIIMDGVEVPEENVLPGASSLGGPFGCLNNARYGIAWGVLGASEFCLHTARQYALDRMQFGVPLARNQLIQKKLADMLTEITLGLHACLQLGRLKDQDKAAPEMVSLLKRNNCGKALDIARQARDMLGGNGISDEYHVIRHAMNLEAVNTYKGTHDIHALILGRAITGIQAFTASK
notes: glutaryl-CoA dehydrogenase (GCDH), human cDNA in pMAL-c2X, patient variant; No cleavage of MBP is described; also called c.1240G > A; not shown: MBP, N-terminal, kept
- binding result [1]: binds

B3: recombinant human GCDH variant A421V, MBP fusion (enzyme)
chain: RPEFDWQDPLVLEEQLTTDEILIRDTFRTYCQERLMPRILLANRNEVFHREIISEMGELGVLGPTIKGYGCAGVSSVAYGLLARELERVDSGYRSAMSVQSSLVMHPIYAYGSEEQRQKYLPQLAKGELLGCFGLTEPNSGSDPSSMETRAHYNSSNKSYTLNGTKTWITNSPMADLFVVWARCEDGCIRGFLLEKGMRGLSAPRIQGKFSLRASATGMIIMDGVEVPEENVLPGASSLGGPFGCLNNARYGIAWGVLGASEFCLHTARQYALDRMQFGVPLARNQLIQKKLADMLTEITLGLHACLQLGRLKDQDKAAPEMVSLLKRNNCGKALDIARQARDMLGGNGISDEYHVIRHAMNLEAVNTYEGTHDIHVLILGRAITGIQAFTASK
notes: glutaryl-CoA dehydrogenase (GCDH), human cDNA in pMAL-c2X, patient variant; No cleavage of MBP is described; also called c.1262C > T; not shown: MBP, N-terminal, kept
- binding result [1]: binds

B4: recombinant human GCDH variant A433E, MBP fusion (enzyme)
chain: RPEFDWQDPLVLEEQLTTDEILIRDTFRTYCQERLMPRILLANRNEVFHREIISEMGELGVLGPTIKGYGCAGVSSVAYGLLARELERVDSGYRSAMSVQSSLVMHPIYAYGSEEQRQKYLPQLAKGELLGCFGLTEPNSGSDPSSMETRAHYNSSNKSYTLNGTKTWITNSPMADLFVVWARCEDGCIRGFLLEKGMRGLSAPRIQGKFSLRASATGMIIMDGVEVPEENVLPGASSLGGPFGCLNNARYGIAWGVLGASEFCLHTARQYALDRMQFGVPLARNQLIQKKLADMLTEITLGLHACLQLGRLKDQDKAAPEMVSLLKRNNCGKALDIARQARDMLGGNGISDEYHVIRHAMNLEAVNTYEGTHDIHALILGRAITGIQEFTASK
notes: glutaryl-CoA dehydrogenase (GCDH), human cDNA in pMAL-c2X, patient variant; No cleavage of MBP is described; also called c.1298C > A; not shown: MBP, N-terminal, kept
- binding result [1]: binds

B5: recombinant human GCDH variant A433V, MBP fusion (enzyme)
chain: RPEFDWQDPLVLEEQLTTDEILIRDTFRTYCQERLMPRILLANRNEVFHREIISEMGELGVLGPTIKGYGCAGVSSVAYGLLARELERVDSGYRSAMSVQSSLVMHPIYAYGSEEQRQKYLPQLAKGELLGCFGLTEPNSGSDPSSMETRAHYNSSNKSYTLNGTKTWITNSPMADLFVVWARCEDGCIRGFLLEKGMRGLSAPRIQGKFSLRASATGMIIMDGVEVPEENVLPGASSLGGPFGCLNNARYGIAWGVLGASEFCLHTARQYALDRMQFGVPLARNQLIQKKLADMLTEITLGLHACLQLGRLKDQDKAAPEMVSLLKRNNCGKALDIARQARDMLGGNGISDEYHVIRHAMNLEAVNTYEGTHDIHALILGRAITGIQVFTASK
notes: glutaryl-CoA dehydrogenase (GCDH), human cDNA in pMAL-c2X, patient variant; No cleavage of MBP is described; also called c.1298C > T; not shown: MBP, N-terminal, kept
- binding result [2]: binds

B6: recombinant human GCDH variant R227P, MBP fusion (enzyme)
chain: RPEFDWQDPLVLEEQLTTDEILIRDTFRTYCQERLMPRILLANRNEVFHREIISEMGELGVLGPTIKGYGCAGVSSVAYGLLARELERVDSGYRSAMSVQSSLVMHPIYAYGSEEQRQKYLPQLAKGELLGCFGLTEPNSGSDPSSMETRAHYNSSNKSYTLNGTKTWITNSPMADLFVVWAPCEDGCIRGFLLEKGMRGLSAPRIQGKFSLRASATGMIIMDGVEVPEENVLPGASSLGGPFGCLNNARYGIAWGVLGASEFCLHTARQYALDRMQFGVPLARNQLIQKKLADMLTEITLGLHACLQLGRLKDQDKAAPEMVSLLKRNNCGKALDIARQARDMLGGNGISDEYHVIRHAMNLEAVNTYEGTHDIHALILGRAITGIQAFTASK
notes: glutaryl-CoA dehydrogenase (GCDH), human cDNA in pMAL-c2X, patient variant; No cleavage of MBP is described; also called c.680G > C; source: could not be purified by size-exclusion chromatography; not shown: MBP, N-terminal, kept
- binding result [3]: binds

B7: recombinant human GCDH variant R138G, MBP fusion (enzyme)
chain: RPEFDWQDPLVLEEQLTTDEILIRDTFRTYCQERLMPRILLANRNEVFHREIISEMGELGVLGPTIKGYGCAGVSSVAYGLLARELERVDSGYGSAMSVQSSLVMHPIYAYGSEEQRQKYLPQLAKGELLGCFGLTEPNSGSDPSSMETRAHYNSSNKSYTLNGTKTWITNSPMADLFVVWARCEDGCIRGFLLEKGMRGLSAPRIQGKFSLRASATGMIIMDGVEVPEENVLPGASSLGGPFGCLNNARYGIAWGVLGASEFCLHTARQYALDRMQFGVPLARNQLIQKKLADMLTEITLGLHACLQLGRLKDQDKAAPEMVSLLKRNNCGKALDIARQARDMLGGNGISDEYHVIRHAMNLEAVNTYEGTHDIHALILGRAITGIQAFTASK
notes: glutaryl-CoA dehydrogenase (GCDH), human cDNA in pMAL-c2X, patient variant; No cleavage of MBP is described; also called c.412A > G; not shown: MBP, N-terminal, kept
- binding result [3]: binds

B8: recombinant human GCDH variant M263V, MBP fusion (enzyme)
chain: RPEFDWQDPLVLEEQLTTDEILIRDTFRTYCQERLMPRILLANRNEVFHREIISEMGELGVLGPTIKGYGCAGVSSVAYGLLARELERVDSGYRSAMSVQSSLVMHPIYAYGSEEQRQKYLPQLAKGELLGCFGLTEPNSGSDPSSMETRAHYNSSNKSYTLNGTKTWITNSPMADLFVVWARCEDGCIRGFLLEKGMRGLSAPRIQGKFSLRASATGVIIMDGVEVPEENVLPGASSLGGPFGCLNNARYGIAWGVLGASEFCLHTARQYALDRMQFGVPLARNQLIQKKLADMLTEITLGLHACLQLGRLKDQDKAAPEMVSLLKRNNCGKALDIARQARDMLGGNGISDEYHVIRHAMNLEAVNTYEGTHDIHALILGRAITGIQAFTASK
notes: glutaryl-CoA dehydrogenase (GCDH), human cDNA in pMAL-c2X, patient variant; No cleavage of MBP is described; also called c.787A > G; not shown: MBP, N-terminal, kept
- binding result [3]: binds

B9: recombinant human GCDH variant V400M, MBP fusion (enzyme)
chain: RPEFDWQDPLVLEEQLTTDEILIRDTFRTYCQERLMPRILLANRNEVFHREIISEMGELGVLGPTIKGYGCAGVSSVAYGLLARELERVDSGYRSAMSVQSSLVMHPIYAYGSEEQRQKYLPQLAKGELLGCFGLTEPNSGSDPSSMETRAHYNSSNKSYTLNGTKTWITNSPMADLFVVWARCEDGCIRGFLLEKGMRGLSAPRIQGKFSLRASATGMIIMDGVEVPEENVLPGASSLGGPFGCLNNARYGIAWGVLGASEFCLHTARQYALDRMQFGVPLARNQLIQKKLADMLTEITLGLHACLQLGRLKDQDKAAPEMVSLLKRNNCGKALDIARQARDMLGGNGISDEYHMIRHAMNLEAVNTYEGTHDIHALILGRAITGIQAFTASK
notes: glutaryl-CoA dehydrogenase (GCDH), human cDNA in pMAL-c2X, patient variant; No cleavage of MBP is described; also called c.1198G > A; not shown: MBP, N-terminal, kept
- binding result [3]: binds

B10: recombinant human GCDH variant R88C, MBP fusion (enzyme)
chain: RPEFDWQDPLVLEEQLTTDEILIRDTFRTYCQERLMPRILLANCNEVFHREIISEMGELGVLGPTIKGYGCAGVSSVAYGLLARELERVDSGYRSAMSVQSSLVMHPIYAYGSEEQRQKYLPQLAKGELLGCFGLTEPNSGSDPSSMETRAHYNSSNKSYTLNGTKTWITNSPMADLFVVWARCEDGCIRGFLLEKGMRGLSAPRIQGKFSLRASATGMIIMDGVEVPEENVLPGASSLGGPFGCLNNARYGIAWGVLGASEFCLHTARQYALDRMQFGVPLARNQLIQKKLADMLTEITLGLHACLQLGRLKDQDKAAPEMVSLLKRNNCGKALDIARQARDMLGGNGISDEYHVIRHAMNLEAVNTYEGTHDIHALILGRAITGIQAFTASK
notes: glutaryl-CoA dehydrogenase (GCDH), human cDNA in pMAL-c2X, patient variant; No cleavage of MBP is described; also called c.262C > T; not shown: MBP, N-terminal, kept
- binding result [1]: binds
